Experimental data taken from publication PMC11446282 (2024).

B1: FAM122A [human (endogenous in HeLa)] / B55α WT (immunopurified, Fig. 2) [not stated] (parent complex)
chain 1: MAQEKMELDLELPPGTGGSPAEGGGSGGGGGLRRSNSAPLIHGLSDTSPVFQAEAPSARRNSTTFPSRHGLLLPASPVRMHSSRLHQIKQEEGMDLINRETVHEREVQTAMQISHSWEESFSLSDNDVEKSASPKRIDFIPVSPAPSPTRGIGKQCFSPSLQSFVSSNGLPPSPIPSPTTRFTTRRSQSPINCIRPSVLGPLKRKCEMETEYQPKRFFQGITNMLSSDVAQLSDPGVCVSSDTLDGNSSSAGSSCNSPAKVSTTTDSPVSPAQAASPFIPLDELSSK
chain 2: MAGAGGGNDIQWCFSQVKGAVDDDVAEADIISTVEFNHSGELLATGDKGGRVVIFQQEQENKIQSHSRGEYNVYSTFQSHEPEFDYLKSLEIEEKINKIRWLPQKNAAQFLLSTNDKTIKLWKISERDKRPEGYNLKEEDGRYRDPTTVTTLRVPVFRPMDLMVEASPRRIFANAHTYHINSISINSDYETYLSADDLRINLWHLEITDRSFNIVDIKPANMEELTEVITAAEFHPNSCNTFVYSSSKGTIRLCDMRASALCDRHSKLFEEPEDPSNRSFFSEIISSISDVKFSHSGRYMMTRDYLSVKIWDLNMENRPVETYQVHEYLRSKLCSLYENDCIFDKFECCWNGSDSVVMTGSYNNFFRMFDRNTKRDITLEASRENNKPRTVLKPRKVCASGKRKKDEISVDSLDFNKKILHTAWHPKENIIAVATTNNLYIFQDKVN

Variants of: B1
Experiment: immunopurification of YFP-B55α variants (IP: YFP), Western blot quantification; read off a plot

Variant	percent of parent [%]
chain 2 L225A	~130
chain 2 H179A	~70
chain 2 T230A	~93
chain 2 Y337A	~130
chain 2 S287A	~63
chain 2 I284A	~97
chain 2 F280A	~140
chain 2 F343A	~90
chain 2 D197A	~0
chain 2 L198A	~0
chain 2 D340A	~77
chain 2 V228A	~100
chain 2 Y178A	~5
